Source: paper PMC2192344
Like-named read-outs stand apart in the source and are kept apart here.

B1: m2 -97/-84 (dsDNA)
DNA 1: AAATACCGGAAGTG
DNA 2: CACTTCCGGTATTT
B2: m3 -97/-84 (dsDNA)
DNA 1: AAATATCGGAAGTG
DNA 2: CACTTCCGATATTT

How the values were obtained:
[1] = biological target: T1, His6-Elf-1 (human, UniProt P32519 1-619); test: EMSA
[2] = biological target: T1, His6-Elf-1; test: EMSA; remark: listed apart in the source

T1 sequence (P32519 whole entry): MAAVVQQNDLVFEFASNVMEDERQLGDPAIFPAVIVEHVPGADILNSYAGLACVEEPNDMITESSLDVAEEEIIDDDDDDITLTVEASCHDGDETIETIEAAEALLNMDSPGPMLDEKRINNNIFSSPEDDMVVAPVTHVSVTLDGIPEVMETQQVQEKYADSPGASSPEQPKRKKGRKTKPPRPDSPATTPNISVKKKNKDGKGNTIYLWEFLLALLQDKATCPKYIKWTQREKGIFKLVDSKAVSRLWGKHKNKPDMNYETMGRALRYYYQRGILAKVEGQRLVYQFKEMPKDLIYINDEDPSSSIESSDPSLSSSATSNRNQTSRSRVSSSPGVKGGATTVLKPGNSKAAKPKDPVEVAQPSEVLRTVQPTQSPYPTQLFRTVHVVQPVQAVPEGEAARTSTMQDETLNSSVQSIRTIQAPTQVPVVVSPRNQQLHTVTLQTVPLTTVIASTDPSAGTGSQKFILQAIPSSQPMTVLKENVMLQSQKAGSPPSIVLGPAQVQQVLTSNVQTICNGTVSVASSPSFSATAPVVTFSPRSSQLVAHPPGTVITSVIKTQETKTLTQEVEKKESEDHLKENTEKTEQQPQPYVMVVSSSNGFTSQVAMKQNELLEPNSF

| Binder | binding result [1] | binding result [2] |
| --- | --- | --- |
| B1 | binds |  |
| B2 |  | no binding |
